± gives the standard deviation.
Assay: protein stability index of a GFP-peptide fusion (GPS, HEK-293T) (PSI 1-6); higher = more stable
Details: c terminus: a fixed tail appended
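Note: 24-mer peptide tiles fused after GFP, lentivirally expressed, FACS-sorted into six equal bins by GFP/DsRed ratio, decoded by Illumina sequencing, PSI is the read-weighted mean bin number.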

Sequence: ATECEFVGSLPVIVVGRLKVALEP [LPCAT4]
- protein stability index (treatment: DMSO): 2.36 ± 0.56
- protein stability index (treatment: MLN4924 1 uM, 8 h): 2.36 ± 0.59

Sequence: MTTDFDLSLDNSPLLQSIHQLDFV [TRIM9]
- protein stability index (treatment: DMSO): 2.7 ± 0.33
- protein stability index (treatment: MLN4924 1 uM, 8 h): 2.71 ± 0.24

Sequence: EDEAGGRFVAFSGEGQSLRKKGRK [UFD1]
- protein stability index (treatment: DMSO): 5.51 ± 0.25
- protein stability index (treatment: MLN4924 1 uM, 8 h): 5.41 ± 0.46

Sequence: VLMKGQHLHLETFKAVLDGLDVLL [PRAME]
- protein stability index (treatment: DMSO): 2.26 ± 0.38
- protein stability index (treatment: MLN4924 1 uM, 8 h): 2.17 ± 0.1

Sequence: SYTIITPLFNPMIYSLRNKEFKSA [OR10K2]
- protein stability index (treatment: DMSO): 2.74 ± 0.65
- protein stability index (treatment: MLN4924 1 uM, 8 h): 2.38 ± 0.34

Sequence: QSGFEMLKDVKSTLEKCEKVKTME [TRIM39]
- protein stability index (treatment: DMSO): 5.11 ± 0.2
- protein stability index (treatment: MLN4924 1 uM, 8 h): 4.86 ± 0.2

Sequence: DEYQYSFWDLFRSKDNMRTRIMIG [SLC2A12]
- protein stability index (treatment: DMSO): 1.85 ± 0.38
- protein stability index (treatment: MLN4924 1 uM, 8 h): 2.14 ± 0.38

Sequence: TSTFEATSEGTLELQQRNPKAERL [ZNF232]
- protein stability index (treatment: DMSO): 5.2 ± 0.2
- protein stability index (treatment: MLN4924 1 uM, 8 h): 5.42 ± 0.14

Sequence: LRLLQHTPSARRNYRIAGARLMRS [C6orf223]
- protein stability index (treatment: DMSO): 2.99 ± 0.22
- protein stability index (treatment: MLN4924 1 uM, 8 h): 3.08 ± 0.32

Sequence: TLRGTGATADFADVADDFENYHKL [NETO1]
- protein stability index (treatment: DMSO): 4.4 ± 0.22
- protein stability index (treatment: MLN4924 1 uM, 8 h): 4.49 ± 0.084

Sequence: HIFGDLDSYIPLHEDLLTRIGEAT [NET1]
- protein stability index (treatment: DMSO): 2.96 ± 0.14
- protein stability index (treatment: MLN4924 1 uM, 8 h): 2.93 ± 0.17

Sequence: THSRMGSIMSTGIVQGSSGAQGSG [CARM1]
- protein stability index (treatment: DMSO): 4.48 ± 0.1
- protein stability index (treatment: MLN4924 1 uM, 8 h): 4.26 ± 0.34

Sequence: RVPAGIFKHTLSISRALLSDVVPE [MFSD9]
- protein stability index (treatment: DMSO): 2.82 ± 0.74
- protein stability index (treatment: MLN4924 1 uM, 8 h): 3.02 ± 0.22

Sequence: GSWGSFQLPGLLNFGEFKCSDSDK [CLCN6]
- protein stability index (treatment: DMSO): 3.99 ± 0.29
- protein stability index (treatment: MLN4924 1 uM, 8 h): 4.17 ± 0.57

Sequence: IYCGAGVQKDHENYMKILLKVGGI [PCMTD1]
- protein stability index (treatment: DMSO): 2.26 ± 0.17
- protein stability index (treatment: MLN4924 1 uM, 8 h): 2.25 ± 0.44

Sequence: PHYICTLKQPHLLLEKYSYYLISG [PNLIPRP1]
- protein stability index (treatment: DMSO): 2.78 ± 0.81
- protein stability index (treatment: MLN4924 1 uM, 8 h): 2.74 ± 0.69

Sequence: CEVWACNLDEEMKKIRQVIRKYNY [CNOT7]
- protein stability index (treatment: DMSO): 2.28 ± 0.19
- protein stability index (treatment: MLN4924 1 uM, 8 h): 2.23 ± 0.14

Sequence: LQILAYGNQESKLIILASGGPQAL [CTNNB1]
- protein stability index (treatment: DMSO): 2.89 ± 1.4
- protein stability index (treatment: MLN4924 1 uM, 8 h): 2.22 ± 1.1

Sequence: AVETRLSLLNMTFMKYVDSNLCCF [FBXO28]
- protein stability index (treatment: DMSO): 2.99 ± 1.8
- protein stability index (treatment: MLN4924 1 uM, 8 h): 2.57 ± 1.3

Sequence: SLDGRDPGNGTHGLSPEEKEQLSN [ELOA2]
- protein stability index (treatment: DMSO): 5.48 ± 0.23
- protein stability index (treatment: MLN4924 1 uM, 8 h): 5.64 ± 0.16

Sequence: FDMSRYSSSGYSSAEINQDLNIQL [FAM219A]
- protein stability index (treatment: DMSO): 3.06 ± 0.27
- protein stability index (treatment: MLN4924 1 uM, 8 h): 3.12 ± 0.18

Sequence: LIKNNSLPRKRQSLRSSSSKLAQL [INTS3]
- protein stability index (treatment: DMSO): 2.99 ± 0.27
- protein stability index (treatment: MLN4924 1 uM, 8 h): 3.31 ± 0.17

Sequence: LRDDVLCARMLYNYGADTNTRNYE [ASB7]
- protein stability index (treatment: DMSO): 3.1 ± 0.21
- protein stability index (treatment: MLN4924 1 uM, 8 h): 2.86 ± 0.14

Sequence: TNNGAGFGLSILWVLLFTPCSFVC [SCAMP3]
- protein stability index (treatment: DMSO): 3.04 ± 0.37
- protein stability index (treatment: MLN4924 1 uM, 8 h): 3.27 ± 0.36

Sequence: KLAVFMWLMTYVGAVFNGITLLIL [RTN3]
- protein stability index (treatment: DMSO): 2.97 ± 0.23
- protein stability index (treatment: MLN4924 1 uM, 8 h): 3.21 ± 0.39

Sequence: CSSSNLAGNDDSFGSLPSPKELSS [DLC1]
- protein stability index (treatment: DMSO): 4.37 ± 0.15
- protein stability index (treatment: MLN4924 1 uM, 8 h): 4.37 ± 0.27

Sequence: LVAKELGQTGTRLTPADKAEHMKR [AUP1]
- protein stability index (treatment: DMSO): 4.41 ± 0.4
- protein stability index (treatment: MLN4924 1 uM, 8 h): 4.29 ± 0.21

Sequence: SWAWRGPGVLKVLWLTASQPCSIV [LPCAT4]
- protein stability index (treatment: DMSO): 2.74 ± 1.1
- protein stability index (treatment: MLN4924 1 uM, 8 h): 2.52 ± 0.84

Sequence: LLPDQARGEVPWSPELGRPHDRSQ [ZNF263]
- protein stability index (treatment: DMSO): 4.58 ± 0.17
- protein stability index (treatment: MLN4924 1 uM, 8 h): 4.86 ± 0.091

Sequence: RADVDHAIEKAFQLWSNVTPLTFT [MMP1]
- protein stability index (treatment: DMSO): 2.13 ± 0.2
- protein stability index (treatment: MLN4924 1 uM, 8 h): 2.44 ± 0.32

Sequence: PTMPQPIEKVSVSTQTKKLSASSP [ZMYND11]
- protein stability index (treatment: DMSO): 5.28 ± 0.18
- protein stability index (treatment: MLN4924 1 uM, 8 h): 5.24 ± 0.25

Sequence: YQSFVQFLQYYYQSGCLYRLRALG [TMEM120A]
- protein stability index (treatment: DMSO): 2.67 ± 0.88
- protein stability index (treatment: MLN4924 1 uM, 8 h): 3.22 ± 0.57

Sequence: YHNAGTQTVPKRIPERLSIFCRDT [IQUB]
- protein stability index (treatment: DMSO): 2.51 ± 0.28
- protein stability index (treatment: MLN4924 1 uM, 8 h): 3.04 ± 0.8

Sequence: VLCPECENPETDLHVNPKKQTIGN [EIF5]
- protein stability index (treatment: DMSO): 4.3 ± 0.3
- protein stability index (treatment: MLN4924 1 uM, 8 h): 4.54 ± 0.15

Sequence: YECTVCKKRFTRRSHLIGHQRTHS [ZNF449]
- protein stability index (treatment: DMSO): 4.86 ± 0.39
- protein stability index (treatment: MLN4924 1 uM, 8 h): 5.05 ± 0.24

Sequence: IKQKLGMNLMNELKQNFSKSWHDM [TPD52L1]
- protein stability index (treatment: DMSO): 2.09 ± 0.2
- protein stability index (treatment: MLN4924 1 uM, 8 h): 1.98 ± 0.35

Sequence: STNEEEKEENEAESDVKHRTRDYK [PRIM1]
- protein stability index (treatment: DMSO): 5.57 ± 0.17
- protein stability index (treatment: MLN4924 1 uM, 8 h): 5.16 ± 0.47

Sequence: LMVHGNERFIQYLASRNTLFNLSN [SNAP91]
- protein stability index (treatment: DMSO): 2.67 ± 0.54
- protein stability index (treatment: MLN4924 1 uM, 8 h): 2.3 ± 0.7

Sequence: TGGLLPIKRTIRVLDVNNQSFREQ [NET1]
- protein stability index (treatment: DMSO): 2.92 ± 0.13
- protein stability index (treatment: MLN4924 1 uM, 8 h): 3.03 ± 0.24

Sequence: MVRRLKMVVKTFMDMDQDSEEEKE [PDS5B]
- protein stability index (treatment: DMSO): 2.73 ± 0.38
- protein stability index (treatment: MLN4924 1 uM, 8 h): 3.13 ± 0.26

Sequence: FYPVMLILFLVIGGMLNFMMHDQR [SOAT2]
- protein stability index (treatment: DMSO): 3.34 ± 0.36
- protein stability index (treatment: MLN4924 1 uM, 8 h): 2.95 ± 0.11

Sequence: EETRVWHRRDGKWQNVHFHCSGAP [CAMK2B]
- protein stability index (treatment: DMSO): 3.1 ± 0.15
- protein stability index (treatment: MLN4924 1 uM, 8 h): 3.11 ± 0.32

Sequence: SRSSILVQHQRVHTGEKPYKCLEC [ZNF24]
- protein stability index (treatment: DMSO): 3.54 ± 0.19
- protein stability index (treatment: MLN4924 1 uM, 8 h): 3.65 ± 0.23

Sequence: CQDQNVPVENFFVKCNGALINTSD [SDE2]
- protein stability index (treatment: DMSO): 3.3 ± 0.23
- protein stability index (treatment: MLN4924 1 uM, 8 h): 3.27 ± 0.47

Source: the supplement of paper PMC10567573
